The source of these data is article PMC12212125, “Constitutively active Arabidopsis cryptochrome two alleles identified using yeast selection and deep mutational scanning” (The Journal of Biological Chemistry, 2025).

B1: Arabidopsis thaliana cryptochrome 2 (CRY2, UniProt Q96524), residues 1-535 fused after the Gal4 DNA-binding domain (Gal4BD-CRY2(535)); mutagenized window 321-412, Q96524 (parent)
chain: MKMDKKTIVWFRRDLRIEDNPALAAAAHEGSVFPVFIWCPEEEGQFYPGRASRWWMKQSLAHLSQSLKALGSDLTLIKTHNTISAILDCIRVTGATKVVFNHLYDPVSLVRDHTVKEKLVERGISVQSYNGDLLYEPWEIYCEKGKPFTSFNSYWKKCLDMSIESVMLPPPWRLMPITAAAEAIWACSIEELGLENEAEKPSNALLTRAWSPGWSNADKLLNEFIEKQLIDYAKNSKKVVGNSTSLLSPYLHFGEISVRHVFQCARMKQIIWARDKNSEGEESADLFLRGIGLREYSRYICFNFPFTHEQSLLSHLRFFPWDADVDKFKAWRQGRTGYPLVDAGMRELWATGWMHNRIRVIVSSFAVKFLLLPWKWGMKYFWDTLLDADLECDILGWQYISGSIPDGHELDRLDNPALQGAKYDPEGEYIRQWLPELARLPTEWIHHPWDAPLTVLKASGVELGTNYAKPIVDIDTARELLAKAISRTREAQIMIGAAPDEIVADSFEALGANTIKEPGLCPSVSSNDQQVPSAV

In the first test the parent is B1. The test can be described thus: yeast two-hybrid growth selection (MaV203; Gal4BD-CRY2(1-535) library x Gal4AD-CIB1; URA3 reporter on SC -Trp/-Leu/-Ura) in the dark, deep sequencing before and after selection, Enrich2 scoring; three independent screens (one at 48 h, two …). The following applies: with CIB1 (CRYPTOCHROME-INTERACTING BASIC-HELIX-LOOP-HELIX 1), dark (no blue light), screens 1, 3 and 4, Svar > 0 = enriched under dark selection for CRY2-CIB1 two-hybrid growth (URA3 reporter), < 0 = depleted, relative to wild type (whose scores are 0). 'The Enrich2 software calculates, parent: 0, not an affinity, scale: Enrich2 score, numbering: uniprot, sequence starts at 1.
In the case of D322Y, the enrichment was -0.959.

With D322A, the enrichment was -0.241.

Take D322G: the enrichment is 0.357.

Take D322E: the enrichment was 0.472.

D322N: the enrichment was 0.239.

Turning to D322V, the enrichment was 0.286.

As for V325F, the enrichment is -0.532.

V325A: the enrichment was -0.239.

For V325I, the enrichment is -0.344.

In the case of V325D, the enrichment was -1.89.

With V325G, the enrichment is 0.408.

In the case of W321C, the enrichment is -0.0126.

As for W321R, the enrichment was 0.946.

For the variant W321G, the enrichment was -0.157.

As to W321L, the enrichment is -1.18.

For A330G, the enrichment was -2.23.

A330T: the enrichment was -0.56.

As for A330S, the enrichment was -0.0962.

Take A330P: the enrichment is -1.93.

With A330D, the enrichment was -0.577.

A330V: the enrichment is -1.26.

With P339L, the enrichment was -1.02.

As to R332K, the enrichment is -1.23.

With R332S, the enrichment is 0.5.

Turning to R332I, the enrichment was -0.681.

As to R332G, the enrichment is -0.0201.

Q333P: the enrichment was -1.44.

As for Q333H, the enrichment is 0.227.

Q333R: the enrichment was 1.48.

Take Q333K: the enrichment is -0.851.

With Q333L, the enrichment is -0.0861.

In the case of D326Y, the enrichment was -0.976.

As for D326E, the enrichment was -1.28.

Consider D326G, for which the enrichment is 0.327.

Consider D326A, for which the enrichment was -0.893.

Consider D326V, for which the enrichment is -0.872.

Consider D326N, for which the enrichment was -0.256.

As to A323D, the enrichment was 0.677.

For A323S, the enrichment was 0.117.

For the variant A323V, the enrichment is -0.61.

For the variant A323T, the enrichment is -0.65.

Take K327T: the enrichment was -0.117.

For K327M, the enrichment is -0.448.

As for K327E, the enrichment is -1.63.

As to K327N, the enrichment is -0.0863.

On to K327R, for which the enrichment was 0.118.

The next test covers variants of B1. Briefly: yeast two-hybrid, quantitative GalUAS-lacZ (beta-galactosidase) reporter assay. The following applies: with itself; dark; strain AH109; parent: 25; read off a plot. For orientation: In a reporter assay the amount or activity of a reporter protein is the signal.
Turning to MKMDKKTIVWFRRDLRIEDNPALAAAAHEGSVFPVFIWCPEEEGQFYPGRASRWWMKQSLAHLSQSLKALGSDLTLIKTHNTISAILDCIRVTGATKVVFNHLYDPVSLVRDHTVKEKLVERGISVQSYNGDLLYEPWEIYCEKGKPFTSFNSYWKKCLDMSIESVMLPPPWRLMPITAAAEAIWACSIEELGLENEAEKPSNALLTRAWSPGWSNADKLLNEFIEKQLIDYAKNSKKVVGNSTSLLSPYLHFGEISVRHVFQCARMKQIIWARDKNSEGEESADLFLRGIGLREYSRYICFNFPFTHEQSLLSHLRFFPWDADVDKFKAWRQGRTGYPLVDAGMRELWATGWMHNRIRVIVSSFAVKFLLLPAKWGMKYFWDTLLDADLECDILGWQYISGSIPDGHELDRLDNPALQGAKYDPEGEYIRQWLPELARLPTEWIHHPWDAPLTVLKASGVELGTNYAKPIVDIDTARELLAKAISRTREAQIMIGAAPDEIVADSFEALGANTIKEPGLCPSVSSNDQQVPSAV [chain 1 W374A], the response worked out at 170 Miller units.

With MKMDKKTIVWFRRDLRIEDNPALAAAAHEGSVFPVFIWCPEEEGQFYPGRASRWWMKQSLAHLSQSLKALGSDLTLIKTHNTISAILDCIRVTGATKVVFNHLYDPVSLVRDHTVKEKLVERGISVQSYNGDLLYEPWEIYCEKGKPFTSFNSYWKKCLDMSIESVMLPPPWRLMPITAAAEAIWACSIEELGLENEAEKPSNALLTRAWSPGWSNADKLLNEFIEKQLIDYAKNSKKVVGNSTSLLSPYLHFGEISVRHVFQCARMKQIIWARDKNSEGEESADLFLRGIGLREYSRYICFNFPFTHEQSLLSHLRFFPWDADVDKFKAWRQGRTGYPLVDAGMRELWATGWMHNRIRVIVSSFAVKFLLLPWKWGRKYFWDTLLDADLECDILGWQYISGSIPDGHELDRLDNPALQGAKYDPEGEYIRQWLPELARLPTEWIHHPWDAPLTVLKASGVELGTNYAKPIVDIDTARELLAKAISRTREAQIMIGAAPDEIVADSFEALGANTIKEPGLCPSVSSNDQQVPSAV [chain 1 M378R], the response turned out to be 210 Miller units.

The test is the same for the next values; noted with them: with itself; light; strain AH109; parent: 220; read off a plot.
Take MKMDKKTIVWFRRDLRIEDNPALAAAAHEGSVFPVFIWCPEEEGQFYPGRASRWWMKQSLAHLSQSLKALGSDLTLIKTHNTISAILDCIRVTGATKVVFNHLYDPVSLVRDHTVKEKLVERGISVQSYNGDLLYEPWEIYCEKGKPFTSFNSYWKKCLDMSIESVMLPPPWRLMPITAAAEAIWACSIEELGLENEAEKPSNALLTRAWSPGWSNADKLLNEFIEKQLIDYAKNSKKVVGNSTSLLSPYLHFGEISVRHVFQCARMKQIIWARDKNSEGEESADLFLRGIGLREYSRYICFNFPFTHEQSLLSHLRFFPWDADVDKFKAWRQGRTGYPLVDAGMRELWATGWMHNRIRVIVSSFAVKFLLLPAKWGMKYFWDTLLDADLECDILGWQYISGSIPDGHELDRLDNPALQGAKYDPEGEYIRQWLPELARLPTEWIHHPWDAPLTVLKASGVELGTNYAKPIVDIDTARELLAKAISRTREAQIMIGAAPDEIVADSFEALGANTIKEPGLCPSVSSNDQQVPSAV [chain 1 W374A]: the response worked out at 180 Miller units.

On to MKMDKKTIVWFRRDLRIEDNPALAAAAHEGSVFPVFIWCPEEEGQFYPGRASRWWMKQSLAHLSQSLKALGSDLTLIKTHNTISAILDCIRVTGATKVVFNHLYDPVSLVRDHTVKEKLVERGISVQSYNGDLLYEPWEIYCEKGKPFTSFNSYWKKCLDMSIESVMLPPPWRLMPITAAAEAIWACSIEELGLENEAEKPSNALLTRAWSPGWSNADKLLNEFIEKQLIDYAKNSKKVVGNSTSLLSPYLHFGEISVRHVFQCARMKQIIWARDKNSEGEESADLFLRGIGLREYSRYICFNFPFTHEQSLLSHLRFFPWDADVDKFKAWRQGRTGYPLVDAGMRELWATGWMHNRIRVIVSSFAVKFLLLPWKWGRKYFWDTLLDADLECDILGWQYISGSIPDGHELDRLDNPALQGAKYDPEGEYIRQWLPELARLPTEWIHHPWDAPLTVLKASGVELGTNYAKPIVDIDTARELLAKAISRTREAQIMIGAAPDEIVADSFEALGANTIKEPGLCPSVSSNDQQVPSAV [chain 1 M378R], for which the response was 240 Miller units.
